Results: the supplement of paper PMC12042874
± gives the uncertainty stated by the source.

Test: amyloid nucleation score (Sup35N fusion, yeast selection) (log enrichment); library NNK3; higher = more nucleation; inactive = no reads after selection
Outline: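 The nucleation score is the log enrichment of output over input reads, calculated with DiMSum and centred on the mode score of non-aggregating sequences. Sequences with under 100 input reads were excluded. Reads came from Illumina sequencing of plasmid inserts from psi-negative yeast expressing Sup35N fused to peptides of 20 random codons, induced 24 hours with 100 μM copper sulfate and grown 7 days at 30°C without adenine and uracil.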

Row | Substance | amyloid nucleation score
1 | PITDFTSNISNSRDPLQVRG | inactive
2 | DQGHRNYINSPRNFLSDKSC | inactive
3 | KRYLGLMQRDVWISDAKLSA | inactive
4 | IYLDFNASWLACNKLICLRN | 1.01 ± 0.13
5 | FFPKWFCMTLLINDVGNHDM | 0.921 ± 0.25
6 | FKWDGPESQFGPSLMRINGA | 1.16 ± 0.19
7 | NRSIIVIWWNSRSSSNSWVG | 2.1 ± 0.072
8 | VSLYCVIWIR | 1.22 ± 0.094
9 | ASIHMFVLYRWSFG | 0.013 ± 0.75
10 | FELYLQLN | 0.478 ± 0.38
11 | QGWPRKITVILFWILQSGSR | inactive
12 | LVNIDLFNDYRAVCGLLTRD | inactive
13 | WFYVDLFCGWTRDVNAASCL | inactive
14 | MVRSRLSASRRSICGPIISA | inactive
15 | KTMDPILQFFERSTASLLLI | inactive
16 | FWLHLVPYRFPIVGLCLRG | inactive
17 | SLIYTKYLLMYFIILFLDGG | inactive
18 | GDSNTSRLCAPSMRNVKAQL | inactive
19 | VFLYTNKYRYGCCGFAFTPF | inactive
20 | RVFGGEIRLSRTCVVM | 1.27 ± 0.17
21 | SIESPSNIMS | inactive
22 | FTRAAREGFFDLY | -0.04 ± 0.66

Row | Substance | amyloid nucleation score
23 | KNLKSVSFGRRYAFNSFVFL | 1.25 ± 0.11
24 | IYMSRKSLVMDVWQRHRDKE | inactive
25 | FASIRSRTRDRVSYVTPSFL | inactive
26 | HSDFY | inactive
27 | YASSCDVKLMQSSPLAYEVD | inactive
28 | YIGTYLLMSYGDSRPRKEMR | 1.47 ± 0.088
29 | SAASYLTHDVN | inactive
30 | ECEWDMVH | inactive
31 | SRRSCYVIAYELV | inactive
32 | LYSECNDPNKA | inactive
33 | YHRTFWSFGSKVFLRVNWCR | inactive
34 | STMDSIYQFL | inactive
35 | DDKRTENG | inactive
36 | MPWGTWGAS | inactive
37 | HAYSWVLFAVMSLSRLPTWN | inactive
38 | LYGLVWYTQVGLLNVYSKIY | 1.24 ± 0.18
39 | CVGQAPGVSLGFQTYQLILW | inactive
40 | LNSMGYFILFYIYRFLENLD | inactive
41 | AVATCP | inactive
42 | FLPRFGNHLTIRQKVRRTSG | inactive
43 | PGTIYVGCRLLIYGTNTADL | inactive
44 | SYISNP | inactive

Row | Substance | amyloid nucleation score
45 | LARDYSFATHSGLRRKSLKQ | inactive
46 | NTYVIVPWKLLTNFDEFPHR | inactive
47 | RELTRRTYAVANYRLSMSRL | inactive
48 | GTVLNSLPQQVGCLRLGSQG | inactive
49 | DVMSEFLFKYWVVNQQCFTR | inactive
50 | VHFLILETFKQNMWGYDLTL | inactive
51 | SNESLWVSLIICFVTHWFQI | inactive
52 | TLGGEMQFVKMFCLLYFNCG | inactive
53 | TLGVGP | inactive
54 | SRVYAKGRKNTSQFCSGGYS | inactive
55 | ILTEYLPSTS | inactive
56 | NSVGFACKEFMHVTAQTHKM | inactive
57 | QMQTATRHFNLG | inactive
58 | QHMSRYYVFLLNCIQCIMNG | 1.58 ± 0.12
59 | FVDMIMKEDKFVLGQNFLRG | inactive
60 | GNSDR | inactive
61 | GPRMCMQLRS | inactive
62 | LSRGDLLEYR | inactive
63 | VWVLGQLWFF | inactive
64 | MYGPMVWVDLYTCKTHRGAS | inactive
65 | ISVLVKWLVAERTSYWIMIP | inactive
